From paper doi:10.1101/2025.03.26.645568

Biological target: Mam1A_(107-213) (Mycobacterium tuberculosis H37Rv)
Assay: SEC-MALS

Substance: Mam1A_(107-213) (domain or fragment)
- stoichiometry N: 4
